From PMC5779224, “Autoinhibition of ankyrin-B/G membrane target bindings by intrinsically disordered segments from the tail regions” (eLife, 2017) come the findings set out here.

Test [1] addresses T1, AnkG 38–855 (AnkG MBD-AI-c protein; MBD + partial AI-c) (rat, UniProt O70511-1 38-855).
T1 construct: numbers count on: rat AnkG NM_001033984.1 (MBD-UPA); also called AnkG WT; source: E. coli BL21 (DE3), purified (Ni2+-NTA, size exclusion)
T1 sequence (looked up): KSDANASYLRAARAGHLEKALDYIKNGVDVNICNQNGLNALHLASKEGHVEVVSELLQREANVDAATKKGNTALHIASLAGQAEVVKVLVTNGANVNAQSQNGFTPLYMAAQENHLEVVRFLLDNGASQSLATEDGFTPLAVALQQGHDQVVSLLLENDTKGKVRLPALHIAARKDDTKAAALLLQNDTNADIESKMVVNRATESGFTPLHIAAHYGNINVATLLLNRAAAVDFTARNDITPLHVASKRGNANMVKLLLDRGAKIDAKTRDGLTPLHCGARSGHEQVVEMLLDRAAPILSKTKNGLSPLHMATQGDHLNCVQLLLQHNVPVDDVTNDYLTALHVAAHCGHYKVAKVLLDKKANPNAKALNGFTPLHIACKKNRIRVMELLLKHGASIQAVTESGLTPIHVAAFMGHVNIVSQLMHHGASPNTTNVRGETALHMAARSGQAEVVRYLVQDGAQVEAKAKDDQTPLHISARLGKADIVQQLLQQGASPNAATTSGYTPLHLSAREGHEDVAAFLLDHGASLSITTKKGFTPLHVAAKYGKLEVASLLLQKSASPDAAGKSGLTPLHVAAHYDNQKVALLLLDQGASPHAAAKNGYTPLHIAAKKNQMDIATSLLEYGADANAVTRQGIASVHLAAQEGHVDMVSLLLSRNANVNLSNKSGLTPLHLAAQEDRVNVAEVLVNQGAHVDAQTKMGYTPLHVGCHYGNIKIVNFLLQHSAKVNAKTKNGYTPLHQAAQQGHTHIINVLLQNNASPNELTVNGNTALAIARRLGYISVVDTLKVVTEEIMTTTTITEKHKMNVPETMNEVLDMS
Put plainly: ITC; VP-ITC MicroCal, 25 °C; proteins in 50 mM Tris-HCl pH 7.8, 1 mM DTT, 1 mM EDTA with 100 mM or 500 mM NaCl as required; who was titrated is not told. To be noted: both partners purified. (In ITC the heat of successive injections is recorded.)

Test [2] addresses T2, AnkB 28–847 (MBD + partial AI-c) (human, UniProt Q01484-2 28-847).
T2 construct: ankyrin-B (AnkB), human 220 kDa isoform, residues 28-847: MBD and a short 20-residue linker; numbers count on: human 220 kDa AnkB NM_020977.3; also called extended MBD with a short 20-residue linker; source: E. coli BL21 (DE3), purified (Ni2+-NTA, size exclusion)
T2 sequence (looked up): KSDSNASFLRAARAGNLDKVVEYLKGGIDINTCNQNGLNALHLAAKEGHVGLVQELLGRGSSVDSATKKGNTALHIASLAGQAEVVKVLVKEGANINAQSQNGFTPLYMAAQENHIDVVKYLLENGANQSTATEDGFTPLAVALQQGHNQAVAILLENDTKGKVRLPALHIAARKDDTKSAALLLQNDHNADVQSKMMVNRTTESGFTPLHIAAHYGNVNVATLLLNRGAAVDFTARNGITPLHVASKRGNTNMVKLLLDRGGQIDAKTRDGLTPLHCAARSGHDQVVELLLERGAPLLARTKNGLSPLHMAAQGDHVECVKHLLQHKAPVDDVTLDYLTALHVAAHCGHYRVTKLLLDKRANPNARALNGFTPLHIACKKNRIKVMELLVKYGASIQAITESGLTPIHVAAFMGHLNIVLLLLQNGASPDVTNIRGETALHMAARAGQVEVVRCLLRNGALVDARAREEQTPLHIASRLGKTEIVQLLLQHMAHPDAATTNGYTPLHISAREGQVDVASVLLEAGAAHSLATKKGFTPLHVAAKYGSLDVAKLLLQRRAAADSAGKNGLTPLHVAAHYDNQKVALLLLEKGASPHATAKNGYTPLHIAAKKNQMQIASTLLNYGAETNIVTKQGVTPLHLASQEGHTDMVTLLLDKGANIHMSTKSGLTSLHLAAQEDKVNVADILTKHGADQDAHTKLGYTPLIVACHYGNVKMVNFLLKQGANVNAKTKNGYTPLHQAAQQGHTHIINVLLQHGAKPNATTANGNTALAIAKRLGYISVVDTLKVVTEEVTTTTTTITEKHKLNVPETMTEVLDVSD
The test is described as above. Particulars: both partners purified.

B1: Nav1.2 (aa 1035–1129) (domain or fragment, mouse, UniProt B1AWN6 1035-1129, looked up)
chain: KALDEIKPLEDLNNKKDSCISNHTTIEIGKDLNYLKDGNGTTSGIGSSVEKYVVDESDYMSFINNPSLTVTVPIAVGESDFENLNTEEFSSESDM
notes: source: E. coli BL21 (DE3), purified (Ni2+-NTA, size exclusion)
Turning to B1, the binding result in test [1] and in test [2] was “binds” each time.
